Experiment [1] concerns the target T1, cyno CD21 on CHO cells (cynomolgus monkey, UniProt A0A2K5URG6 21-1034).
T1 construct: whole, on cells; also called CHO-cyno CD21 cells; CHO-cynoCD21
T1 sequence: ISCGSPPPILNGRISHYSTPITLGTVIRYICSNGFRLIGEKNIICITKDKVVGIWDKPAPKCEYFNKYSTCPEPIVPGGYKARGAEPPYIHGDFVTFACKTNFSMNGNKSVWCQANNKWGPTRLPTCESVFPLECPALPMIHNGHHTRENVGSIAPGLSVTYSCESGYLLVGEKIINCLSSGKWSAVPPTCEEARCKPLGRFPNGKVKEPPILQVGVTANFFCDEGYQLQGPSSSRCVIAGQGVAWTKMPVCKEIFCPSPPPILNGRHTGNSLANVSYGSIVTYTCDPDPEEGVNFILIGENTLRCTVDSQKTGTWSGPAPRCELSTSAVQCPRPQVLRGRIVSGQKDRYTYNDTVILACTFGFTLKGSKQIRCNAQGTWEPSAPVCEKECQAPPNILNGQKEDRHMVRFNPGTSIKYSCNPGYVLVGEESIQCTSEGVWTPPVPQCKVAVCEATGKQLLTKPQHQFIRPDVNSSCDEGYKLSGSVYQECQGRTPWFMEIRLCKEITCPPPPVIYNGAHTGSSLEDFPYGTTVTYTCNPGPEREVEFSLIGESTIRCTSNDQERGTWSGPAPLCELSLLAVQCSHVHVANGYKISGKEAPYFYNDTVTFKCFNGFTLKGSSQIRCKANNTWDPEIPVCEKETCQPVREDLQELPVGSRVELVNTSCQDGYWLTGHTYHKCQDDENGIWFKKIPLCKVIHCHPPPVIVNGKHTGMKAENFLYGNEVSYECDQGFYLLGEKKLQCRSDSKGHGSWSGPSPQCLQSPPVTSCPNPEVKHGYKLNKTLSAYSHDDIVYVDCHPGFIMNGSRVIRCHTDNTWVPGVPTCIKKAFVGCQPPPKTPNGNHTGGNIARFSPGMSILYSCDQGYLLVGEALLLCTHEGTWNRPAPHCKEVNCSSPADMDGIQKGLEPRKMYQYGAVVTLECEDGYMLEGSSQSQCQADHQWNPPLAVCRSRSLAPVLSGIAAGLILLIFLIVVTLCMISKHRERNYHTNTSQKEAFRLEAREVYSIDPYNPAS
The experiment in a line: flow cytometry, Ab15 titrated on CHO cells overexpressing cyno CD21, anti-human IgG-PE, Geo MFI. The protocol:
Ab15 binding to cell-surface human and cyno CD21 was determined using human Raji B cells (ATCC, Manassas, VA) and CHO cells over expressing cyno CD21. Cells expressing cyno CD21 were generated by transfecting CHO cells with a mammalian expression construct encoding full-length cyno CD21. Stable cell clones were selected on hygromycin-B, and their expression of cyno CD21 confirmed by flow cytometry.
For the Ab15 binding experiment, cells were dissociated with cell dissociation buffer (Sigma) and blocked on ice with PBS+3% bovine serum (BS)+human Fc blocker. Cells were stained on ice for 1 hr with 3-fold serially diluted Ab15 (starting from 50 nM), then washed with cold PBS. Secondary antibody (anti-human IgG-PE, 1:500 dilution, Invitrogen, cat. #H10104) was added on ice for 1 hr. Cells were washed with and resuspended in PBS, and analyzed for Ab15 binding on a BD Fortessa instrument.

For experiment [2], the target named is T1, cyno CD21 on CHO cells. The experiment in a line: flow cytometry, competition with biotinylated human C3d on CHO-cynoCD21 cells. On the procedure: To measure neutralization of C3d binding to cell-surface CD21 by flow cytometry, human Raji cells and CHO-cyno CD21 cells were used. Cells were dissociated with cell dissociation buffer (Sigma) and blocked on ice with PBS+3% bovine serum albumin (BSA)+human Fc blocker. In a 96-well plate, […] were incubated for 0.5 hr on ice with 3-fold serially diluted Ab15 (starting from 100 nM), then with 4.5 ug/ml biotinylated human C3d. SA-BV451 conjugate (BD Bioscience, cat. #563529) was then added at 0.5 ug/ml for 1 hr on ice. Cells were washed again with cold PBS, resuspended in PBS and analyzed for human C3d binding on a BD Fortessa™.

B1: Ab15 (antibody, human IgG1, kappa, V domains shown)
VH: QVQLVQSGAEVKKPGSSVKVSCKASGGTFSSYAISWVRQAPGQGLEWMGRIIPILGIANYAQKFQGRVTITADKSTSTAYMELSSLRSEDTAVYYCAREDDSSGYYQDWGQGTLVTVSS
VL: EIVMTQSPATLSLSPGESATLSCRAGQSINSHLAWYQQKPGQSPSLLIYDASTRATGVPARFSGSGFGTEFTLTISSLQSEDFAVYFCQQYEYWYTFGQGTKLEIKR
notes: Tb-labeled in the HTRF assay; also called 36C01; SC38-36C01 (IgG1 version)
Turning to B1, the concentration giving a half-maximal response (EC50) with cyno CD21 on CHO cells [1] amounted to 50 pM. The molecule also registered a 50% inhibitory concentration (IC50) with cyno CD21 on CHO cells [2] of 240 pM.
